Measurements as given in US20240191187A1, “MEDIA AND METHODS FOR GROWING MAMMARY ORGANOIDS” (STEMCELL TECHNOLOGIES CANADA INC., priority 2021, published 2024).

Experiments:
[1] = test system: human mammary epithelial cells; assay: Total cell count among formed human mammary organoids; assay type: cell-based
Description: Fragments of human mammary epithelial cells were isolated from tissue samples obtained from academic collaborators, as follows. Resected tissue samples were minced in a petri dish using a scalpel to cut in a cross-hatched pattern. The minced tissue samples were placed in a dissociation flask in standard culture medium supplemented with BSA, insulin, collagenase and hyaluronidase. The flask was gently shaken overnight on an orbital shaker placed in a 37° C. tissue incubator. The following morning the floating layer of fat was removed by pipette, and the remaining liquid was transferred to a tube and briefly centrifuged at low rpm (˜80 g for 30 seconds). The pellet (A pellet) was set aside and the supernatant was further centrifuged for an incrementally longer period of time and at an incrementally higher rpm (˜200 g for 4 minutes). The pellet (B pellet) was set aside and the supernatant was further centrifuged for a still incrementally longer period of time and at an incrementally higher rpm (˜450 g for 5 minutes).
Cryopreserved pellet A and pellet B were dissociated into a single cell suspension by treatment with 0.25% Trypsin-EDTA for 5 minutes at 37° C. (with intermittent trituration) and then centrifuged at (300 g for 5 minutes). The supernatant was discarded and the pellet was resuspended in a 100 μg/ml DNase solution for 1 minute at room temperature. The resulting cells were passed through a 37 μm strainer to obtain the single cell suspension.
Each well received between 0.5-1 mL of any one of the various culture media described herein. […]
The effects of modulating signaling through BMP were analyzed across multiple experiments in terms of total cell count among formed organoids (FIG. 9A) and the lineage balance of the cells among formed organoids (FIG. 9B).
The effects of modulating signaling through an ERBB receptor family member were analyzed across multiple experiments in terms of total cell count among formed organoids (FIG. 13A) and the lineage balance of the cells among formed organoids (FIG. 13B).

[2] = test system: human mammary epithelial cells; assay: Human mammary organoid cell lineage balance by flow cytometry
[3] = test system: mouse mammary epithelial cells; assay: Mouse mammary organoid formation, organoid organization by brightfield/confocal imaging; assay type: cell-based; conditions: non-sorted mouse cells; RSPO comprising media vs media free of RSPO (luminal-biased/cystic)
Description: A single cell suspension of mouse mammary epithelial cells was isolated from mammary glands, as follows. A resected mammary gland was minced and placed in a tube containing standard culture medium, including 50 μg/ml gentamycin, collagenase, and hyaluronidase. The mammary gland was incubated for 2 hours at 37° C. in the tissue incubator. Following the incubation, the cell dissociation mixture was washed in advanced DMEM and centrifuged at 300 g for 5 minutes. Depending on the appearance of the pellet, in some cases it is desirable to resuspend the pellet in ammonium chloride to lyse contaminating red blood cells. Following, the pellet is resuspended in 0.25% Trypsin-EDTA, as above, for 5 minutes at 37° C. and then centrifuged at (300 g for 5 minutes). The supernatant was discarded and the pellet was resuspended in a 100 μg/ml DNase solution for 1 minute at room temperature. The resulting cells were passed through a 37 μm strainer to obtain the single cell suspension.
Each well received between 0.5-1 mL of any one of the various culture media described herein.
The plated single cell suspension of mammary epithelial cells formed into organoids that were passaged approximately every 7-days, with 2-3 full medium changes during such 7-day period. To passage the organoids, the Matrigel domes were broken apart by pipetting in pre-warmed 0.25% Trypsin-EDTA, incubating at 37° C. for ˜ 5-15 minutes and pipetting again. The trypsinization reaction was inactivated by washing in an equal volume of Hanks Balanced Salt Solution supplemented with 2% FBS. Depending on the density and size of organoids a 1:2-1:5 split was performed, with the cells seeded as domes, as described above. Alternatively, cells would be strained through a 37 μm strainer to obtain the single cell suspension and seeded in Matrigel domes as described above.
Single cell suspensions of mouse mammary epithelial cells were obtained in accordance with Example 1. The single cell suspension was sorted using a BD FACSAria™ Fusion flow cytometer into three populations of cells corresponding to the ER^+, milk, and basal cell lineages, based on the differential expression of EpCAM, CD49f, and CD49b. Non-epithelial cells were further eliminated during the sorting strategy based on the expression of CD45, Ter119 and CD31. The sorted cells were seeded and cultured essentially as described in Example 2 in an organoid medium free of an exogenously-added inhibitor of BMP signaling and either comprising exogenously added RSPO-1 (˜100 ng/mL) or lacking exogenously added RSPO-1 (e.g. MammoCult™ Mouse Organoid Growth Medium, […] Technologies) (FIG. 2).
Organoid media were formulated to lack either exogenously added RSPO-1 or RSPO-3, and they were tested on single cell suspensions of bulk mammary epithelial cells, obtained in accordance with Example 1 and seeded and cultured as described in Example 2. […] Flow cytometry analysis of the cellular composition of organoids formed in either RSPO-comprising media or media lacking RSPO confirmed a reduction in the number of basal cells among organoids formed in the absence of WNT agonism (FIG. 3B).
In a follow-up experiment, organoids were formed from single cell suspensions obtained in accordance with Example 1, and seeded and cultured as described in Example 2. […] At the end of the second passage the formed organoids were processed and stained for K8, K14, and DAPI, as described in Example 3.
The foregoing experiments were performed in a medium that included an inhibitor of BMP signaling, thus the effect of BMP signaling inhibition on the formation of mouse mammary organoids was explored.

B1: amphiregulin (protein, UniProt P15514 101-187, looked up)
Amphiregulin: SVRVEQVVKPPQNKTESENTSDKPKRKKKGGKNGKNRRNRKKKNPCNAEFQNFCIHGECKYIEHLEAVTCKCQQEYFGERCGEKSMK
notes: ligand of ERBB1
[1]; vs control with no modulation of ERBB signaling
  total cell count among formed organoids, ERBB modulators: highest mitogenic activity
[2]; just prior to first passage, ~10-50 ng/mL AREG, ~10-50 ng/mL EGF, ~50-100 ng/mL NRG1
  cell lineage balance, ERBB receptor family ligands: a minor or no effect on cell lineage balance
[2]; normalized to control lacking ERBB modulators, mean of 2 experiments
  cell lineage balance across multiple experiments, ERBB ligands: minimal impact on luminal cell percentages but profound impact on increasing basal cell percentages

B2: TGFβ3: ligand of a TGFβ receptor (protein, UniProt P10600 301-412, looked up)
Transforming growth factor …: ALDTNYCFRNLEENCCVRPLYIDFRQDLGWKWVHEPKGYYANFCSGPCPYLRSADTTHSTVLGLYNTLNPEASASPCCVPQDLEPLTILYYVGRTPKVEQLSNMVVKSCKCS
[2]; ~50 ng/mL, just prior to first passage
  cell lineage balance, TGFβ receptor ligands: results consistent with TGF β1

B3: BMP4: BMP signaling activator (protein, UniProt P12644 293-408, looked up)
Bone morphogenetic protein 4: SPKHHSQRARKKNKNCRRHSLYVDFSDVGWNDWIVAPPGYQAFYCHGDCPFPLADHLNSTNHAIVQTLVNSVNSSIPKACCVPTELSAISMLYLDEYDKVVLKNYQEMVVEGCGCR
[1]; vs condition where BMP signaling not modulated or inhibited
  total cell count among formed organoids, BMP signaling modulators: a marked net loss of total cells
[2]; just prior to first passage, ~50 ng/mL BMP2 or BMP4, ~25-200 ng/mL NOGGIN or ~10-100 nM LDN193189
  cell lineage balance, BMP signaling modulators: significant increase in basal cells and reduction in luminal cells

B4: RSPO-3: WNT agonist, an R-spondin (protein, UniProt Q9BXY4 22-272, looked up)
R-spondin-3: QNASRGRRQRRMHPNVSQGCQGGCATCSDYNGCLSCKPRLFFALERIGMKQIGVCLSSCPSGYYGTRYPDINKCTKCKADCDTCFNKNFCTKCKSGFYLHLGKCLDNCPEGLEANNHTMECVSIVHCEVSEWNPWSPCTKKGKTCGFKRGTETRVREIIQHPSAKGNLCPPTNETRKCTVQRKKCQKGERGKKGRERKRKKPNKGESKEAIPDSKSLESSKEIPEQRENKQQQKKRKVQDKQKSVSVSTVH
[3]
  type of organoids formed from bulk (non-sorted) mammary epithelial cells: yielded a significant number of mixed organoids
